Data on 68 molecules can be found in patent US20170189511A1.

Some results are limits rather than exact numbers.

The target of this assay is HLA-A*24 (peptide-receptive MHC class I monomer of the UV-ligand exchange assay) (human). Nature of the assay: UV-ligand exchange with anti-b2m ELISA. On the technique in general: An ELISA detects its analyte on a solid surface through an enzyme-linked reagent.

B1: Peptide SEQ ID NO: 273 (…) (peptide)
peptide: TYIKPISKL
Consider B1, for which the peptide exchange yield was in the range of 50 to 75%.

B2: Peptide SEQ ID NO: 289 (…) (peptide)
peptide: KYPVEWAKF
In the case of B2, the peptide exchange yield was over 75%.

B3: Peptide SEQ ID NO: 184 (…) (peptide)
peptide: VFQNFPLLF
For the molecule B3, the peptide exchange yield is over 75%.

B4: Peptide SEQ ID NO: 221 (…) (peptide)
peptide: RYSTGLAGNLL
Molecule B4 showed a peptide exchange yield of 50 to 75%.

B5: Peptide SEQ ID NO: 172 (…) (peptide)
peptide: TYTTVPRVAF
In turn, B5 came in with a peptide exchange yield of over 75%.

B6: Peptide SEQ ID NO: 272 (…) (peptide)
peptide: QYLQDAYSF
Regarding B6, the peptide exchange yield is over 75%.

B7: Peptide SEQ ID NO: 180 (…) (peptide)
peptide: IYDDSFIRPVTF
In turn, B7 had a peptide exchange yield of 50 to 75%.

B8: Peptide SEQ ID NO: 162 (…) (peptide)
peptide: VFTRVSSFL
With B8, the peptide exchange yield was in the range of 50 to 75%.

B9: Peptide SEQ ID NO: 284 (…) (peptide)
peptide: RYLNKAFHI
On to B9, for which the peptide exchange yield is 50 to 75%.

B10: Peptide SEQ ID NO: 169 (…) (peptide)
peptide: AYTLIAPNI
B10: the peptide exchange yield is 50 to 75%.

B11: Peptide SEQ ID NO: 283 (…) (peptide)
peptide: TYGDAGLTYTF
In turn, B11 gave a peptide exchange yield of 50 to 75%.

B12: Peptide SEQ ID NO: 286 (…) (peptide)
peptide: RYPDNLKHL
The molecule B12 displayed a peptide exchange yield of 20 to 49%.

B13: Peptide SEQ ID NO: 179 (…) (peptide)
peptide: MYDSYWRQF
B13 returned a peptide exchange yield of over 75%.

B14: Peptide SEQ ID NO: 160 (…) (peptide)
peptide: VYTLDIPVL
Consider B14, for which the peptide exchange yield was over 75%.

B15: Peptide SEQ ID NO: 186 (…) (peptide)
peptide: IFPQFLYQF
B15 yielded a peptide exchange yield of over 75%.

B16: Peptide SEQ ID NO: 178 (…) (peptide)
peptide: IFIEVFSHF
The molecule B16 came in with a peptide exchange yield of 50 to 75%.

B17: Peptide SEQ ID NO: 166 (…) (peptide)
peptide: YYVESGKLF
The molecule B17 gave a peptide exchange yield of over 75%.

B18: Peptide SEQ ID NO: 282 (…) (peptide)
peptide: KFVDSTFYL
Turning to B18, the peptide exchange yield is over 75%.

B19: Peptide SEQ ID NO: 182 (…) (peptide)
peptide: IYQLDTASI
In turn, B19 came in with a peptide exchange yield of 50 to 75%.

B20: Peptide SEQ ID NO: 159 (…) (peptide)
peptide: LYNKGFIYL
Turning to B20, the peptide exchange yield is over 75%.

B21: Peptide SEQ ID NO: 274 (…) (peptide)
peptide: AYLHSHALI
As for B21, the peptide exchange yield is over 75%.

B22: Peptide SEQ ID NO: 275 (…) (peptide)
peptide: EYINQGDLHEF
Molecule B22 returned a peptide exchange yield of 50 to 75%.

B23: Peptide SEQ ID NO: 191 (…) (peptide)
peptide: VFKASKITF
B23 showed a peptide exchange yield of 50 to 75%.

B24: Peptide SEQ ID NO: 194 (…) (peptide)
peptide: EFGSLHLEFL
B24 displayed a peptide exchange yield of under 20%.

B25: Peptide SEQ ID NO: 215 (YFDKVVTL) (peptide)
peptide: YFDKVVTL
For the molecule B25, the peptide exchange yield was in the range of 20 to 49%.

B26: Peptide SEQ ID NO: 279 (…) (peptide)
peptide: TYIESASEL
In the case of B26, the peptide exchange yield lay within 50 to 75%.

B27: Peptide SEQ ID NO: 276 (…) (peptide)
peptide: VYGFQWRHF
The molecule B27 displayed a peptide exchange yield of over 75%.

B28: Peptide SEQ ID NO: 267 (…) (peptide)
peptide: KYMVYPQTF
For the molecule B28, the peptide exchange yield was over 75%.

B29: Peptide SEQ ID NO: 185 (…) (peptide)
peptide: IYKVGAPTI
In the case of B29, the peptide exchange yield was in the range of 50 to 75%.

B30: Peptide SEQ ID NO: 163 (…) (peptide)
peptide: DYLKGLASF
The molecule B30 displayed a peptide exchange yield of over 75%.

B31: Peptide SEQ ID NO: 210 (…) (peptide)
peptide: IYTMIYRNL
Turning to B31, the peptide exchange yield was over 75%.

B32: Peptide SEQ ID NO: 223 (…) (peptide)
peptide: KYIPYKYVI
B32 came in with a peptide exchange yield of 50 to 75%.

B33: Peptide SEQ ID NO: 217 (…) (peptide)
peptide: FFPPTRQMGLLF
Regarding B33, the peptide exchange yield is over 75%.

B34: Peptide SEQ ID NO: 198 (…) (peptide)
peptide: LYLDKATLI
For the molecule B34, the peptide exchange yield was in the range of 50 to 75%.

B35: Peptide SEQ ID NO: 177 (…) (peptide)
peptide: VYPWLGALL
As for B35, the peptide exchange yield is over 75%.

B36: Peptide SEQ ID NO: 227 (…) (peptide)
peptide: IFLDYEAGTLSF
With B36, the peptide exchange yield is over 75%.

B37: Peptide SEQ ID NO: 183 (…) (peptide)
peptide: VFTSTARAF
The molecule B37 displayed a peptide exchange yield of 50 to 75%.

B38: Peptide SEQ ID NO: 164 (…) (peptide)
peptide: KFSSFSLFF
Take B38: the peptide exchange yield is 50 to 75%.

B39: Peptide SEQ ID NO: 158 (…) (peptide)
peptide: HYSQELSLLYL
The molecule B39 had a peptide exchange yield of over 75%.

B40: Peptide SEQ ID NO: 216 (…) (peptide)
peptide: QYSSVFKSL
In the case of B40, the peptide exchange yield was over 75%.

B41: Peptide SEQ ID NO: 188 (RYFKGLVF) (peptide)
peptide: RYFKGLVF
The molecule B41 displayed a peptide exchange yield of 50 to 75%.

B42: Peptide SEQ ID NO: 214 (…) (peptide)
peptide: LYLKLWNLI
As for B42, the peptide exchange yield is 50 to 75%.

B43: Peptide SEQ ID NO: 278 (…) (peptide)
peptide: RYISDQLFTNF
As for B43, the peptide exchange yield was over 75%.

B44: Peptide SEQ ID NO: 205 (…) (peptide)
peptide: VHIPEVYLI
On to B44, for which the peptide exchange yield is 50 to 75%.

B45: Peptide SEQ ID NO: 224 (…) (peptide)
peptide: QYLENLEKL
Consider B45, for which the peptide exchange yield fell in the range of 50 to 75%.

B46: Peptide SEQ ID NO: 271 (…) (peptide)
peptide: LYHDIFSRL
In turn, B46 returned a peptide exchange yield of over 75%.

B47: Peptide SEQ ID NO: 170 (…) (peptide)
peptide: VYEDQVGKF
B47 returned a peptide exchange yield of 20 to 49%.

B48: Peptide SEQ ID NO: 203 (…) (peptide)
peptide: FYSRLLQKF
For B48, the peptide exchange yield was in the range of 50 to 75%.

B49: Peptide SEQ ID NO: 192 (…) (peptide)
peptide: SYALLTYMI
B49: the peptide exchange yield is over 75%.

B50: Peptide SEQ ID NO: 228 (…) (peptide)
peptide: KYTSWYVAL
As for B50, the peptide exchange yield is over 75%.

B51: Peptide SEQ ID NO: 208 (…) (peptide)
peptide: TYTQDFNKF
On to B51, for which the peptide exchange yield was 50 to 75%.

B52: Peptide SEQ ID NO: 226 (…) (peptide)
peptide: VYRDETGELF
B52 displayed a peptide exchange yield of 50 to 75%.

B53: Peptide SEQ ID NO: 225 (…) (peptide)
peptide: YYVYIMNHL
The molecule B53 displayed a peptide exchange yield of 50 to 75%.

B54: Peptide SEQ ID NO: 181 (…) (peptide)
peptide: LYLDIINLF
B54 registered a peptide exchange yield of over 75%.

B55: Peptide SEQ ID NO: 189 (…) (peptide)
peptide: WYVNGVNYF
Molecule B55 gave a peptide exchange yield of 20 to 49%.

B56: Peptide SEQ ID NO: 165 (…) (peptide)
peptide: DYTTWTALL
In the case of B56, the peptide exchange yield was over 75%.

B57: Peptide SEQ ID NO: 161 (…) (peptide)
peptide: IYLVSIPEL
On to B57, for which the peptide exchange yield was over 75%.

B58: Peptide SEQ ID NO: 171 (…) (peptide)
peptide: LFIPSSKLLFL
Molecule B58 registered a peptide exchange yield of 50 to 75%.

B59: Peptide SEQ ID NO: 219 (…) (peptide)
peptide: EYPLVINTL
B59 displayed a peptide exchange yield of 50 to 75%.

B60: Peptide SEQ ID NO: 168 (…) (peptide)
peptide: KYQDILETI
Turning to B60, the peptide exchange yield was over 75%.

B61: Peptide SEQ ID NO: 190 (…) (peptide)
peptide: GFFIFNERF
B61 came in with a peptide exchange yield of 50 to 75%.

B62: Peptide SEQ ID NO: 211 (…) (peptide)
peptide: YYLEVGKTLI
The molecule B62 displayed a peptide exchange yield of over 75%.

B63: Peptide SEQ ID NO: 206 (…) (peptide)
peptide: EYQENFLSF
The molecule B63 registered a peptide exchange yield of 50 to 75%.

B64: Peptide SEQ ID NO: 193 (…) (peptide)
peptide: RFHPTPLLL
Molecule B64 came in with a peptide exchange yield of over 75%.

B65: Peptide SEQ ID NO: 167 (…) (peptide)
peptide: NYINRILKL
Molecule B65 registered a peptide exchange yield of over 75%.

B66: Peptide SEQ ID NO: 187 (…) (peptide)
peptide: TYLRDQHFL
The molecule B66 yielded a peptide exchange yield of over 75%.

B67: Peptide SEQ ID NO: 288 (…) (peptide)
peptide: VYVSDIQEL
As for B67, the peptide exchange yield lay in the range of 50 to 75%.

B68: Peptide SEQ ID NO: 280 (…) (peptide)
peptide: RYPDNLKHLYL
On to B68, for which the peptide exchange yield is over 75%.
